The source of these data is US20210070882A1 (Hoffmann-La Roche, published 2021).

Positions count from the first letter of the chain named. Several values for one entry are separate records, joined by “and”; a condition that tells them apart may be missing. Identical values can stand only once. Like-named read-outs stand apart in the source and are kept apart here.

Assay [1] has as its target T1, human CD19 (human, UniProt P15391 20-556).
T1 sequence (looked up): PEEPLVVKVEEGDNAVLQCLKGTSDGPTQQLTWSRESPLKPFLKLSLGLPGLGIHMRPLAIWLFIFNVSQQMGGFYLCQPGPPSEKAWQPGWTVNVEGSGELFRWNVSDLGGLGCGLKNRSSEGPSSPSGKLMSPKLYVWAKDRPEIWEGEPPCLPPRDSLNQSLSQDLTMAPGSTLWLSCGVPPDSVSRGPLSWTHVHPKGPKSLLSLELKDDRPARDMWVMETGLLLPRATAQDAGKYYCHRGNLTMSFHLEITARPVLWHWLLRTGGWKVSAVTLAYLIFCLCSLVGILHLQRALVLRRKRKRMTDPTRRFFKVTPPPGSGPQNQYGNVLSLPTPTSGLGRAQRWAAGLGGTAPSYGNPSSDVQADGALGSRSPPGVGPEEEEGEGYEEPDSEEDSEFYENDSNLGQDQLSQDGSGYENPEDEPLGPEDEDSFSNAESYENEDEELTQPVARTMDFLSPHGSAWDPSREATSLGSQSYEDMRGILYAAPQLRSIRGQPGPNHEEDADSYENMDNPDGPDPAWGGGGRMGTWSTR
Kind of assay: cell-based or functional assay.

Assay [2] addresses T1, human CD19. Kind of assay: flow cytometry on CD19-expressing Raji cells. How it is done:
(§1) The binding of CD19 IgGs and CD19 TCBs to human CD19- and CD3-expressing target cells was tested using CD19-expressing Burkitt's lymphoma cells (Raji) and CD3-expressing immortalized T lymphocyte line (Jurkat). Briefly, cells were harvested, counted, checked for viability and resuspended at 2×10⁶ cells/ml in FACS buffer (100 μl PBS 0.1% BSA). 100 μl of cell suspension (containing 0.2×10⁶ cells) were incubated in round-bottom 96-well plate for 30 min at 4° C. with increasing concentrations of the CD19 IgGs and CD19 TCBs (10 pM-200 nM), washed twice with cold PBS 0.1% BSA, re-incubated for further 30 min at 4° C. with the PE-conjugated AffiniPure F(ab′)2 Fragment goat anti-human IgG Fcg Fragment Specific secondary antibody (Jackson Immuno Research Lab PE #109-116-170), washed twice with cold PBS 0.1% BSA and immediately analyzed by FACS using a FACS Cantoll (Software FACS Diva) by gating live, DAPI-negative, cells.
(In general: In flow cytometry, cells or beads pass a laser one at a time.)

Assay [3] concerns the target T1, human CD19. Kind of assay: cell-based or functional assay. This is another data set of the same source.
Assay [4] has as its target T1, human CD19. Kind of assay: cell-based or functional assay. The source holds these as a separate data set.
In assay [5] the target is T1, human CD19. Kind of assay: cell-based or functional assay. This is another data set of the same source.
The target in assay [6] is T1, human CD19. Kind of assay: cell-based or functional assay. This is another data set of the same source.
The target of assay [7] is T1, human CD19. Kind of assay: cell-based or functional assay. The source holds these as a separate data set.
Assay [8] addresses T1, human CD19. Kind of assay: cell-based or functional assay. The source holds these as a separate data set.
The target of assay [9] is T1, human CD19. Kind of assay: cell-based or functional assay. This is another data set of the same source.
The target in assay [10] is T1, human CD19. Kind of assay: flow cytometry on CD19-expressing Raji cells. How it is done: as §1
The source holds these as a separate data set.

Assay [11] has as its target T1, human CD19. Kind of assay: flow cytometry on Nalm-6 cells and normal human B cells. The method, then: The binding of different CD19 TCB antibody formats (based on 8B8 clone) was assessed on human CD19-expressing target cells (Nalm-6 and normal human B cells) and human CD3-expressing target cells (CD4, CD8 T cells and Jurkat cells). The following CD19 TCB antibody formats were tested: molecule B as shown in FIG. 2B (named in this example “CD19 TCB_2+1_no charges_inverted”) and molecule A as shown in FIG. 2A (named in this example “CD19 TCB_2+1_charges CD19_inverted”). […] Briefly, cells were harvested, counted, checked for viability and resuspended at 1.5×10⁶ cells/ml in FACS buffer (100 μl PBS 0.1% BSA).

B1: Molecule B: 2+1 IgG CrossFab, inverted, without charge modifications (CH1/CL exchange in CD3 binder, parental murine CD19 binder 8B8) (bispecific antibody)
chain 1: EVQLQQSGPELVKPGASVKMACKASGYTFTDYIMHWVKQKTGQGLEWIGYINPYNDGSKYTEKFNGKATLTSDKSSITAYMELSSLTSEDSAVYYCARGTYYYGSALFDYWGQGTTLTVSSASTKGPSVFPLAPSSKSTSGGTAALGCLVKDYFPEPVTVSWNSGALTSGVHTFPAVLQSSGLYSLSSVVTVPSSSLGTQTYICNVNHKPSNTKVDKKVEPKSCDKTHTCPPCPAPEAAGGPSVFLFPPKPKDTLMISRTPEVTCVVVDVSHEDPEVKFNWYVDGVEVHNAKTKPREEQYNSTYRVVSVLTVLHQDWLNGKEYKCKVSNKALGAPIEKTISKAKGQPREPQVCTLPPSRDELTKNQVSLSCAVKGFYPSDIAVEWESNGQPENNYKTTPPVLDSDGSFFLVSKLTVDKSRWQQGNVFSCSVMHEALHNHYTQKSLSLSP
chain 2: not shown
chain 3: QAVVTQEPSLTVSPGGTVTLTCGSSTGAVTTSNYANWVQEKPGQAFRGLIGGTNKRAPGTPARFSGSLLGGKAALTLSGAQPEDEAEYYCALWYSNLWVFGGGTKLTVLSSASTKGPSVFPLAPSSKSTSGGTAALGCLVKDYFPEPVTVSWNSGALTSGVHTFPAVLQSSGLYSLSSVVTVPSSSLGTQTYICNVNHKPSNTKVDKKVEPKSC
chain 4: DAVMTQTPLSLPVSLGDQASISCRSSQSLENSNGNTYLNWYLQKPGQSPQLLIYRVSKRFSGVLDRFSGSGSGTDFTLKISRVEAEDLGVYFCLQLTHVPYTFGGGTKLEIKRTVAAPSVFIFPPSDEQLKSGTASVVCLLNNFYPREAKVQWKVDNALQSGNSQESVTEQDSKDSTYSLSSTLTLSKADYEKHKVYACEVTHQGLSSPVTKSFNRGEC
notes: also called CD19 TCB_8B8; CD19 TCB_8 B8
For B1, in the assay with human CD19 [1], the “T cell activation EC50 upon lysis of Z-138 cells, CD25/CD4” value amounted to 3.22 pM; the “T cell activation EC50 upon lysis of Z-138 cells, CD25/CD8” value was 1.86 pM; the “T cell activation EC50 upon lysis of Z-138 cells, CD69/CD4” value was 1.01 pM; the “T cell activation EC50 upon lysis of Z-138 cells, CD69/CD8” value was found to be 0.83 pM. Moreover, in the assay with human CD19 [1], the “T cell activation EC50 upon lysis of Z-138 cells, CD107/CD4” value was 1.68 pM and the “T cell activation EC50 upon lysis of Z-138 cells, CD107/CD8” value amounted to 1.32 pM. In the assay with human CD19 [2], the EC50 was 4.1 nM and 0.795 µg/mL. Also, in the assay with human CD19 [3], the “Tumor cell lysis Z-138 cells (21 h), EC50” value was found to be 0.62 ng/mL and the “Tumor cell lysis Z-138 cells (21 h), EC50 (pM)” value was 3.2 pM. Further, in the assay with human CD19 [4], the “T cell activation EC50 upon Z-138 lysis, CD25/CD4” value worked out at 2.4 pM; the “T cell activation EC50 upon Z-138 lysis, CD25/CD8” value amounted to 2.4 pM; the “T cell activation EC50 upon Z-138 lysis, CD69/CD4” value was 1.8 pM; the “T cell activation EC50 upon Z-138 lysis, CD69/CD8” value is 2.7 pM. Further, in the assay with human CD19 [5], the “Tumor cell lysis Z-138 cells (21 h), EC50” value worked out at 0.8 ng/mL and the “Tumor cell lysis Z-138 cells (21 h), EC50 (pM)” value was 4.1 pM. In addition, in the assay with human CD19 [6], the “T cell activation EC50, CD25/CD4, Nalm-6” value was 3.3 pM; the “T cell activation EC50, CD25/CD4, SUDHL-4” value worked out at 3.9 pM; the “T cell activation EC50, CD25/CD8, Nalm-6” value was 0.7 pM; the “T cell activation EC50, CD25/CD8, SUDHL-4” value was 2.1 pM. In addition, in the assay with human CD19 [6], the “T cell activation EC50, CD69/CD4, Nalm-6” value amounted to 0.9 pM; the “T cell activation EC50, CD69/CD4, SUDHL-4” value was 2 pM; the “T cell activation EC50, CD69/CD8, Nalm-6” value was 0.8 pM; the “T cell activation EC50, CD69/CD8, SUDHL-4” value came to 2.7 pM. In the assay with human CD19 [7], the “Tumor cell lysis Z-138 cells (21 h), EC50” value stood at 0.62 ng/mL and the “Tumor cell lysis Z-138 cells (21 h), EC50 (pM)” value is 3.16 pM. Further, in the assay with human CD19 [8], the “Tumor lysis EC50 (pM), Nalm-6” value was determined as 1.7 pM and the “Tumor lysis EC50 (pM), SUDHL-4” value amounted to 0.8 pM. Further, in the assay with human CD19 [9], the “T cell activation EC50 upon lysis of Z-138 cells, CD25/CD4” value was determined as 2.77 pM; the “T cell activation EC50 upon lysis of Z-138 cells, CD25/CD8” value amounted to 1.7 pM; the “T cell activation EC50 upon lysis of Z-138 cells, CD69/CD4” value was ~0.81 pM; the “T cell activation EC50 upon lysis of Z-138 cells, CD69/CD8” value was 0.82 pM. In the assay with human CD19 [9], the “T cell activation EC50 upon lysis of Z-138 cells, CD107/CD4” value is 1.37 pM and the “T cell activation EC50 upon lysis of Z-138 cells, CD107/CD8” value was determined as 1.22 pM.

B2: Molecule D: 2+1 IgG CrossFab, inverted, without charge modifications (CH1/CL exchange in CD3 binder, murine CD19 binder 10C1) (bispecific antibody)
chain 1: B1 chain 3
chain 2: EVQLQQSGPELVKPGASVKMSCKASGYTFTSYVMHWVKQKPGQGLEWIGYINPYNDGTKFNEKFKGKATLTSDKSSSTAYMELSSLTSEDSAVYYCTRGVYYYGSSQGDYWGQGTTLTVSSASTKGPSVFPLAPSSKSTSGGTAALGCLVKDYFPEPVTVSWNSGALTSGVHTFPAVLQSSGLYSLSSVVTVPSSSLGTQTYICNVNHKPSNTKVDKKVEPKSCDKTHTCPPCPAPEAAGGPSVFLFPPKPKDTLMISRTPEVTCVVVDVSHEDPEVKFNWYVDGVEVHNAKTKPREEQYNSTYRVVSVLTVLHQDWLNGKEYKCKVSNKALGAPIEKTISKAKGQPREPQVCTLPPSRDELTKNQVSLSCAVKGFYPSDIAVEWESNGQPENNYKTTPPVLDSDGSFFLVSKLTVDKSRWQQGNVFSCSVMHEALHNHYTQKSLSLSP
chain 3: not shown
chain 4: B1 chain 4 with V56I, K58N, L64P, S68N, L96V, Y101W
notes: Same chain layout as molecule B (CD19 VL-CL light chain twice); also called CD19 TCB_10C1; CD19 TCB_10 C1
For the molecule B2, the EC50 in the assay with human CD19 [10] lay within 3000 to 8000 pM. Further, the half-maximal effective concentration (EC50) with human CD19 [2] was 7.7 nM and 1.49 µg/mL. Moreover, in the assay with human CD19 [4], the “T cell activation EC50 upon Z-138 lysis, CD25/CD4” value amounted to 6.7 pM; the “T cell activation EC50 upon Z-138 lysis, CD25/CD8” value is 5.9 pM; the “T cell activation EC50 upon Z-138 lysis, CD69/CD4” value came out at 4.5 pM; the “T cell activation EC50 upon Z-138 lysis, CD69/CD8” value was 5.7 pM. Also, in the assay with human CD19 [5], the “Tumor cell lysis Z-138 cells (21 h), EC50” value was 2.2 ng/mL and the “Tumor cell lysis Z-138 cells (21 h), EC50 (pM)” value is 11.1 pM. In addition, in the assay with human CD19 [6], the “T cell activation EC50, CD25/CD4, Nalm-6” value was 11.8 pM; the “T cell activation EC50, CD25/CD4, SUDHL-4” value worked out at 9.7 pM; the “T cell activation EC50, CD25/CD8, Nalm-6” value came to 3 pM; the “T cell activation EC50, CD25/CD8, SUDHL-4” value was 7.2 pM. Further, in the assay with human CD19 [6], the “T cell activation EC50, CD69/CD4, Nalm-6” value turned out to be 5.6 pM; the “T cell activation EC50, CD69/CD4, SUDHL-4” value is 5.2 pM; the “T cell activation EC50, CD69/CD8, Nalm-6” value worked out at 3.8 pM; the “T cell activation EC50, CD69/CD8, SUDHL-4” value worked out at 10.5 pM. Besides, in the assay with human CD19 [8], the “Tumor lysis EC50 (pM), Nalm-6” value worked out at 2.1 pM and the “Tumor lysis EC50 (pM), SUDHL-4” value came to 3.4 pM.

B3: DP47 TCB (untargeted TCB having an identical structure as molecule B but with the DP47 binder instead of a CD19 binder) (bispecific antibody)
heavy 1: not shown
heavy 2: not shown
light 1: B1 chain 3
light 2: not shown
notes: Negative control; also called untargeted TCB control; copies: 1 + 1 + 1 + 2
As to B3, the binding result with human CD19 [11] was “no binding”.

A word on the EC50: it is the concentration giving half of the maximal effect. Read a high EC50 as a less potent agent.
